Source: publication doi:10.1101/2025.02.12.637899, “UB-MBX-46 is a potent and selective antagonist of the human P2X7 receptor developed by structure-based drug design” (bioRxiv, 2025)

B1: full-length wild-type mouse P2X7 receptor (receptor, UniProt Q9Z1M0 1-595, looked up)
chain: MPACCSWNDVLQYETNKVTRIQSTNYGTVKWVLHMIVFSYISFALVSDKLYQRKEPVISSVHTKVKGIAEVTENVTEGGVTKLGHSIFDTADYTFPLQGNSFFVMTNYVKSEGQVQTLCPEYPRRGAQCSSDRRCKKGWMDPQSKGIQTGRCVPYDKTRKTCEVSAWCPTEEEKEAPRPALLRSAENFTVLIKNNIHFPGHNYTTRNILPTMNGSCTFHKTWDPQCSIFRLGDIFQEAGENFTEVAVQGGIMGIEIYWDCNLDSWSHHCRPRYSFRRLDDKNTDESFVPGYNFRYAKYYKENNVEKRTLIKAFGIRFDILVFGTGGKFDIIQLVVYIGSTLSYFGLATVCIDLLINTYSSAFCRSGVYPYCKCCEPCTVNEYYYRKKCESIMEPKPTLKYVSFVDEPHIRMVDQQLLGKSLQVVKGQEVPRPQMDFSDLSRLSLSLHDSPLTPGQSEEIQLLHEEVAPKSGDSPSWCQCGNCLPSRLPEQRRALEELCCRRKPGRCITTSKLFHKLVLSRDTLQLLLLYQDPLLVLGEEATNSRLRHRAYRCYATWRFGSQDMADFAILPSCCRWRIRKEFPKTEGQYSGFKYPY
modifications: palmitoylation of residues on the C-cys anchor; limited glycosylation, acylation and palmitoylation modelled where density allowed
notes: P2X7 receptor (P2X purinoceptor 7), mouse, full-length wild type, no mutations or truncations; UniProt Q9Z1M0; The construct carries a C-terminal GFP, a 3C protease site and a histidine tag; digested with HRV 3C protease before SEC; Homotrimer in the apo closed state structure; also called mP2X7R; mP2X7; source: HEK293 GNTI- cells, BacMam, purified (DDM/CHS, TALON, SEC); not shown: GFP, …
B2: full-length wild-type human P2X7 receptor (receptor, UniProt Q99572 1-595, looked up)
chain: MPACCSCSDVFQYETNKVTRIQSMNYGTIKWFFHVIIFSYVCFALVSDKLYQRKEPVISSVHTKVKGIAEVKEEIVENGVKKLVHSVFDTADYTFPLQGNSFFVMTNFLKTEGQEQRLCPEYPTRRTLCSSDRGCKKGWMDPQSKGIQTGRCVVYEGNQKTCEVSAWCPIEAVEEAPRPALLNSAENFTVLIKNNIDFPGHNYTTRNILPGLNITCTFHKTQNPQCPIFRLGDIFRETGDNFSDVAIQGGIMGIEIYWDCNLDRWFHHCRPKYSFRRLDDKTTNVSLYPGYNFRYAKYYKENNVEKRTLIKVFGIRFDILVFGTGGKFDIIQLVVYIGSTLSYFGLAAVFIDFLIDTYSSNCCRSHIYPWCKCCQPCVVNEYYYRKKCESIVEPKPTLKYVSFVDESHIRMVNQQLLGRSLQDVKGQEVPRPAMDFTDLSRLPLALHDTPPIPGQPEEIQLLRKEATPRSRDSPVWCQCGSCLPSQLPESHRCLEELCCRKKPGACITTSELFRKLVLSRHVLQFLLLYQEPLLALDVDSTNSRLRHCAYRCYATWRFGSQDMADFAILPSCCRWRIRKEFPKSEGQYSGFKSPY
modifications: palmitoylation of residues on the C-cys anchor; limited glycosylation, acylation and palmitoylation modelled where density allowed
notes: P2X7 receptor (P2X purinoceptor 7), human, full-length wild type, no mutations or truncations; UniProt Q99572; The construct carries a C-terminal GFP, a 3C protease site and a histidine tag; the protein was digested with HRV 3C protease before SEC; also called hP2X7R; hP2X7; not shown: GFP, C-terminal, cleaved

Target: the molecule itself
Assay: cryo-EM structure; purified receptor in 20 mM HEPES pH 7.0, 100 mM NaCl, 0.5 mM C12M (DDM); apo, or incubated with 900 uM ATP or with antagonist at 3-4x the molar concentration of the monomer; homotrimer

Protein	stoichiometry N
B1	3
B2	3
